Experimental data from patent US20150274820A1 (ESBATECH AN ALCON BIOMEDICAL RESEARCH UNIT, published 2015).
One block for each binder: values may come before it.

Assays:
[1] = molecular target: T1, recombinant human VEGF165 (human, UniProt P15692 27-191); assay: cell-based or functional assay
[2] = molecular target: recombinant rat VEGF164 (rat) (UniProt P16612); assay: Biacore SPR, VEGF immobilized, pH 5
[3] = molecular target: recombinant murine VEGF164 (mouse) (UniProt Q00731); assay: Biacore SPR, VEGF immobilized, pH 5
[4] = molecular target: T2, recombinant human PLGF (human, UniProt P49763-2 19-149, limits assumed); assay: Biacore SPR, PlGF immobilized, pH 5
T2 construct: Negative control; also called PIGF
T2 sequence (looked up): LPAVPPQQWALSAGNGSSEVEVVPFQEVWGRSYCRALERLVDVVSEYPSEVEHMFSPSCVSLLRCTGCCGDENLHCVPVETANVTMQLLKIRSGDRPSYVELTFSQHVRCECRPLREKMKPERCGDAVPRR
Description: (§1) In this example, the Biacore-binding ability of scFvs was tested and the binding affinity was measured using the exemplary surface plasmon resonance method with BIAcore™-T100. The VEGF proteins, tested for binding by these scFv candidates, in this example and later examples include purified Escherichia coli-expressed recombinant human VEGF₁₆₅ (PeproTech EC Ltd.), recombinant human VEGF₁₂₁ (PeproTech EC Ltd.), recombinant human VEGF₁₁₀ (ESBATech AG), recombinant murine VEGF₁₆₄ (PeproTech EC Ltd.), recombinant rat VEGF₁₆₄ (Biovision), recombinant rabbit VEGF₁₁₀ (ESBATech AG), and recombinant human PLGF (PeproTech EC Ltd.). For the surface plasmon resonance experiment, carboxymethylated dextran biosensor chips (CM4, GE Healthcare) were activated with N-ethyl-N′-(3-dimethylaminopropyl) carbodiimide hydrochloride and N-hydroxysuccinimide according to the supplier's instructions. Each of the 6 different VEGF forms, as exemplified above, was coupled to 1 of the 4 different flow cells on a CM4 sensor chip using a standard amine-coupling procedure. […] The 4th flow cell of each chip was treated similarly except no proteins were immobilized prior to blocking, and the flow cell was used as in-line reference. […] Dissociation of the anti-VEGF scFv from the VEGF on the CM4 chip was allowed to proceed for 10 min at 25° C. Sensorgrams were generated for each anti-VEGF scFv sample after in-line reference cell correction followed by buffer sample subtraction. The apparent dissociation rate constant (kd), the apparent association rate constant (kₐ) and the apparent dissociation equilibrium constant (KD) were calculated using one-to-one Langmuir binding model with BIAcore T100 evaluation Software version 1.1.

[5] = molecular target: T1, recombinant human VEGF165; assay: Biacore SPR, VEGF immobilized, pH 7.4
Description: as §1
Target sequence in this assay (P15692 other isoform, or with tags, fused parts or gaps): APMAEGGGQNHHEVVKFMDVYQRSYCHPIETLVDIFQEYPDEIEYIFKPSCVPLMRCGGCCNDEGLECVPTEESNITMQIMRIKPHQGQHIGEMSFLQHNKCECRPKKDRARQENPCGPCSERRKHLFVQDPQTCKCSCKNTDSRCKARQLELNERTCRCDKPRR

[6] = molecular target: T1, recombinant human VEGF165; assay: cell-based or functional assay; remark: listed apart in the source
Target sequence in this assay (P15692 other isoform, or with tags, fused parts or gaps): as above

[7] = molecular target: T3, recombinant human VEGF110 (human, UniProt P15692-4 27-136, limits assumed); assay: Biacore SPR, VEGF immobilized, pH 5
T3 construct: Made in house; also called hVEGF110
T3 sequence (looked up): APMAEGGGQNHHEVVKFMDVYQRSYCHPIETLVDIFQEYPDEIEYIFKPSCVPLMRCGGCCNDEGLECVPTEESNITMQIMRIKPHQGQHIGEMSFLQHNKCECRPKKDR
Description: as §1

[8] = molecular target: T4, recombinant human VEGF121 (human, UniProt P15692 27-147); assay: Biacore SPR, VEGF immobilized, pH 5
T4 construct: mature; Isoform VEGF121 of the entry; also called hVEGF121
T4 sequence (looked up): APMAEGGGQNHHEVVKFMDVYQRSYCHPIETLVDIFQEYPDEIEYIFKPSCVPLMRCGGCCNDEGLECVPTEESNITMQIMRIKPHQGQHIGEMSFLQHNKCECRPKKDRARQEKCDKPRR
Description: as §1

[9] = molecular target: T1, recombinant human VEGF165; assay: Biacore SPR, VEGF immobilized, pH 5
Description: as §1
Target sequence in this assay (P15692 other isoform, or with tags, fused parts or gaps): as the sequence (P15692 other isoform, or with tags, fused parts or gaps) above

[10] = molecular target: T1, recombinant human VEGF165; assay: Biacore SPR, VEGF immobilized, pH 5; remark: listed apart in the source
Description: as §1, with “1.1. […]” for “1.1.”
Target sequence in this assay (P15692 other isoform, or with tags, fused parts or gaps): as the sequence (P15692 other isoform, or with tags, fused parts or gaps) above

[11] = molecular target: T1, recombinant human VEGF165; assay: Biacore SPR, VEGF immobilized, pH 5; remark: listed apart in the source
Description: as §1
Target sequence in this assay (P15692 other isoform, or with tags, fused parts or gaps): as the sequence (P15692 other isoform, or with tags, fused parts or gaps) above

[12] = molecular target: T1, recombinant human VEGF165; assay: VEGFR1/Fc competition ELISA on coated hVEGF165; ratio to Lucentis
Description: After 30-60 min of incubation at room temperature, the mixtures were transferred to the human VEGF₁₆₅ immobilized plate and incubated for 90 min. […] Optical density at 450 nm (OD 450 nm) was measured using a Sunrise microplate reader (Tecan). Data were analyzed as above, and EC₅₀ values were calculated from the dose-response curves of the scFvs.
Target sequence in this assay (P15692 other isoform, or with tags, fused parts or gaps): as the sequence (P15692 other isoform, or with tags, fused parts or gaps) above

[13] = molecular target: T1, recombinant human VEGF165; assay: cell-based or functional assay; remark: listed apart in the source

Rel. activity in HUVEC assay (EC50Luc[nM]/EC50test[nM]) hVEGF [1]: 0.0179 | koff [2]: 6.63e-05 s⁻¹ | kon [2]: 626000 M⁻¹ s⁻¹ | koff [3]: 4.61e-05 s⁻¹ | kon [3]: 753000 M⁻¹ s⁻¹ | binding result [4]: no binding | koff [5]: 6.85e-05 s⁻¹ | kon [5]: 800000 M⁻¹ s⁻¹ | Rel. activity in HUVEC assay (EC50Luc[nM]/EC50test[nM]) [6]: 0.0179 | koff [7]: 7.96e-05 s⁻¹ | kon [7]: 405000 M⁻¹ s⁻¹ | koff [8]: 9.97e-05 s⁻¹ | kon [8]: 467000 M⁻¹ s⁻¹ | koff [9]: 4.4e-05 s⁻¹ | kon [9]: 659000 M⁻¹ s⁻¹ | koff [10]: 4.4e-05 s⁻¹ | kon [10]: 659000 M⁻¹ s⁻¹ | koff [11]: 4.4e-05 s⁻¹ | kon [11]: 659000 M⁻¹ s⁻¹ | Rel. activity hVEGR1 comp. ELISA (EC50Luc[nM]/EC50test[nM]) [12]: 8
B1: 511-max (scFv)
scFv: EIVMTQSPSTLSASVGDRVIITCQASQSINIWLSWYQQKPGKAPKLLIYRASTLASGVPSRFSGSGSGTEFTLTISSLQPDDFATYYCQANYAYSAGYGAAFGQGTKLTVLGGGGGSGGGGSGGGGSGGGGSEVQLVESGGGLVQPGGSLRLSCTVSGFSLNTYYMNWVRQAPGKGLEWVGIIAPDDTTYYASWAKSRSTISRDTSKNTVYLQMNSLRAEDTAVYYCARSGDTTAWGADIWGQGTLVTVSS
notes: also called ESBA802

koff [5]: 0.00262 s⁻¹ | kon [5]: 1.06e+06 M⁻¹ s⁻¹ | Rel. activity in HUVEC assay (EC50Luc[nM]/EC50test[nM]) [6]: 0.0014 | EC50 in HUVEC assay (FIG. 8c) [13]: 63.5 nM | koff [11]: 0.0173 s⁻¹ | kon [11]: 1.88e+06 M⁻¹ s⁻¹
B2: 534-max (scFv)
scFv: EIVMTQSPSTLSASVGDRVIITCQASQSINIWLSWYQQKPGKAPKLLIYKESTLASGVPSRFSGSGSGTEFTLTISSLQPDDFATYYCQNNYDSGNNGFPFGQGTKLTVLGGGGGSGGGGSGGGGSGGGGSEVQLVESGGGLVQPGGSLRLSCTASGFSLSYYYMSWVRQAPGKGLEWVGIIGPGDYTDYASWAKGRFTISKDTSKNTVYLQMNSLRAEDTAVYYCARGDDNSGWGEDIWGQGTLVTVSS
notes: VL and VH tied by name; also called EP534max; Protein Nr; 793

koff [2]: 0.0266 s⁻¹ | kon [2]: 1.47e+07 M⁻¹ s⁻¹ | koff [3]: 0.0601 s⁻¹ | kon [3]: 3.47e+07 M⁻¹ s⁻¹ | binding result [4]: no binding | koff [5]: 0.0198 s⁻¹ | kon [5]: 7.59e+06 M⁻¹ s⁻¹ | Rel. activity in HUVEC assay (EC50Luc[nM]/EC50test[nM]) [6]: 0.0009 | koff [7]: 0.00133 s⁻¹ | kon [7]: 901000 M⁻¹ s⁻¹ | koff [8]: 0.00123 s⁻¹ | kon [8]: 897000 M⁻¹ s⁻¹ | koff [9]: 0.00282 s⁻¹ | kon [9]: 838000 M⁻¹ s⁻¹ | koff [11]: 0.00282 s⁻¹ | kon [11]: 838000 M⁻¹ s⁻¹ | Rel. activity hVEGR1 comp. ELISA (EC50Luc[nM]/EC50test[nM]) [12]: 0.09
B3: 509-maxII (scFv)
scFv: EIVMTQSPSTLSASVGDRVIITCQASQNIRIWLSWYQQKPGKAPKLLIYKASTLESGVPSRFSGSGSGTEFTLTISSLQPDDFATYYCQNNAHYSTNGGTFGQGTKLTVLGGGGGSGGGGSGGGGSGGGGSEVQLVESGGGLVQPGGSLRLSCTASGFSLSSYYMSWVRQAPGKGLEWVGILDYVGDTDYASWAKGRFTISKDASKNTVYLQMNSLRAEDTAVYYCARTDDSRGWGLNIWGQGTLVTVSS
notes: VH tied by name; also called Protein Nr
